Consider 31 molecules from publication PMC10786891, “Massively parallel profiling of RNA-targeting CRISPR-Cas13d”.

B1: target 1 U8C,A18U (mixed)
RNA 1: CACCCGUGCAAAAAUGCAGGGGUCUAAAACUGAGCGGAUAACCUCUCUAUGG
RNA 2: GGGAAUGGAUCCACAUCUACGAAUUCGUACCAUUGAGAGGUUACCCGCUCACCGAGAUCGGAAGAGCACACGU
B2: target 1 A9G,U10C (mixed)
RNA 1: B1 RNA 1
RNA 2: B1 RNA 2 with U34A, U42C, A43G, C44U
B3: target 1 C2A,A14G (mixed)
RNA 1: B1 RNA 1
RNA 2: B1 RNA 2 with U34A, A38G, C44U, C50A
B4: target 3 insG 3' of 8,insC 3' of 5 (mixed)
RNA 1: CACCCGUGCAAAAUUGCAGGGGUCUAAAACGACCUGAAUAUUUCAGAUCAAA
RNA 2: GGGAAUGGAUCCACAUCUACGAAUUCGUUUUUGAUCUGAAAUAUGUCACGGUCUGCAGAUCGGAAGAGCACACGU
B5: target 3 G3A,G4A (mixed)
RNA 1: B4 RNA 1
RNA 2: GGGAAUGGAUCCACAUCUACGAAUUCGUUUUUGAUCUGAAAUAUUCAAAUCUGCAGAUCGGAAGAGCACACGU
B6: target 3 U21A (mixed)
RNA 1: B4 RNA 1
RNA 2: B5 RNA 2 with U31A, A48G, A49G
B7: target 3 insG 3' of 9,insU 3' of 3 (mixed)
RNA 1: B4 RNA 1
RNA 2: B4 RNA 2 with U44G, G45U, C49G, G51U
B8: target 3 C6U,U8G (mixed)
RNA 1: B4 RNA 1
RNA 2: B5 RNA 2 with U44G, C46U, A48G, A49G
B9: target 3 insC 3' of 7 (mixed)
RNA 1: B4 RNA 1
RNA 2: GGGAAUGGAUCCACAUCUACGAAUUCGUUUUUGAUCUGAAAUAUUCCAGGUCUGCAGAUCGGAAGAGCACACGU
B10: target 3 insA 3' of 19 (mixed)
RNA 1: B4 RNA 1
RNA 2: B9 RNA 2 with U35A, C36U, U37C, G38U, A39G, U42A, A43U, U44A, C46U
B11: target 3 insC 3' of 20,insA 3' of 6 (mixed)
RNA 1: B4 RNA 1
RNA 2: GGGAAUGGAUCCACAUCUACGAAUUCGUUUUUCGAUCUGAAAUAUUCAAGGUCUGCAGAUCGGAAGAGCACACGU
B12: target 3 U2G,U10G (mixed)
RNA 1: B4 RNA 1
RNA 2: B5 RNA 2 with U42G, A48G, A49G, U50G
B13: target 3 A5U,A11G (mixed)
RNA 1: B4 RNA 1
RNA 2: B5 RNA 2 with A41G, A47U, A48G, A49G
B14: target 3 insA 3' of 8,insG 3' of 6 (mixed)
RNA 1: B4 RNA 1
RNA 2: B4 RNA 2 with G45A, A48G, C49A
B15: target 3 G3A,U22A (mixed)
RNA 1: B4 RNA 1
RNA 2: B5 RNA 2 with U30A, A48G
B16: target 3 insG 3' of 8,insC 3' of 7 (mixed)
RNA 1: B4 RNA 1
RNA 2: B4 RNA 2 with A48C, C49A
B17: target 3 insG 3' of 22,insA 3' of 2 (mixed)
RNA 1: B4 RNA 1
RNA 2: B11 RNA 2 with U31G, C33U, A49G, G51U, U52A
B18: target 3 G4A,C6U (mixed)
RNA 1: B4 RNA 1
RNA 2: B5 RNA 2 with C46U, A49G
B19: target 3 U2A,G4U (mixed)
RNA 1: B4 RNA 1
RNA 2: B5 RNA 2 with A48U, A49G, U50A
B20: target 3 U2A,U20C (mixed)
RNA 1: B4 RNA 1
RNA 2: B5 RNA 2 with U32C, A48G, A49G, U50A
B21: target 3 C6U,U22A (mixed)
RNA 1: B4 RNA 1
RNA 2: B5 RNA 2 with U30A, C46U, A48G, A49G
B22: target 3 insC 3' of 4,insC 3' of 3 (mixed)
RNA 1: B4 RNA 1
RNA 2: B4 RNA 2 with G45U, U46C, C47A, A48G, G51C
B23: target 3 insA 3' of 10,insU 3' of 3 (mixed)
RNA 1: B4 RNA 1
RNA 2: B4 RNA 2 with U44A, G45U, C49G, G51U
B24: target 3 U2C,U7A (mixed)
RNA 1: B4 RNA 1
RNA 2: B5 RNA 2 with U45A, A48G, A49G, U50C
B25: target 3 insA 3' of 22,insU 3' of 16 (mixed)
RNA 1: B4 RNA 1
RNA 2: B11 RNA 2 with U31A, C33U, G39U, A40G, U43A, A44U, U45A, C47U, A48C
B26: target 3 insG 3' of 5,insG 3' of 2 (mixed)
RNA 1: B4 RNA 1
RNA 2: B4 RNA 2 with G45U, U46C, C47A, A48G, C49G, G51U, U52G
B27: target 3 G3A,G4U (mixed)
RNA 1: B4 RNA 1
RNA 2: B5 RNA 2 with A48U
B28: target 3 insG 3' of 5,insC 3' of 5 (mixed)
RNA 1: B4 RNA 1
RNA 2: B4 RNA 2 with G45U, U46C, C47A, A48G
B29: target 3 G4C,U7A (mixed)
RNA 1: B4 RNA 1
RNA 2: B5 RNA 2 with U45A, A48C, A49G
B30: target 3 insG 3' of 16,insU 3' of 3 (mixed)
RNA 1: B4 RNA 1
RNA 2: B11 RNA 2 with C33G, G34A, A35U, U36C, C37G, A49G, G51U
B31: target 3 insC 3' of 8,insG 3' of 5 (mixed)
RNA 1: B4 RNA 1
RNA 2: B4 RNA 2 with G45C, C49G

Substitutions are numbered along the chain they refer to. In names and notes the source's numbering stands.

The target of the data set is T1, EsCas13d, nuclease-dead (Eubacterium siraeum, UniProt B0MS50, R295A;H300A;R849A;H854A).
T1 sequence: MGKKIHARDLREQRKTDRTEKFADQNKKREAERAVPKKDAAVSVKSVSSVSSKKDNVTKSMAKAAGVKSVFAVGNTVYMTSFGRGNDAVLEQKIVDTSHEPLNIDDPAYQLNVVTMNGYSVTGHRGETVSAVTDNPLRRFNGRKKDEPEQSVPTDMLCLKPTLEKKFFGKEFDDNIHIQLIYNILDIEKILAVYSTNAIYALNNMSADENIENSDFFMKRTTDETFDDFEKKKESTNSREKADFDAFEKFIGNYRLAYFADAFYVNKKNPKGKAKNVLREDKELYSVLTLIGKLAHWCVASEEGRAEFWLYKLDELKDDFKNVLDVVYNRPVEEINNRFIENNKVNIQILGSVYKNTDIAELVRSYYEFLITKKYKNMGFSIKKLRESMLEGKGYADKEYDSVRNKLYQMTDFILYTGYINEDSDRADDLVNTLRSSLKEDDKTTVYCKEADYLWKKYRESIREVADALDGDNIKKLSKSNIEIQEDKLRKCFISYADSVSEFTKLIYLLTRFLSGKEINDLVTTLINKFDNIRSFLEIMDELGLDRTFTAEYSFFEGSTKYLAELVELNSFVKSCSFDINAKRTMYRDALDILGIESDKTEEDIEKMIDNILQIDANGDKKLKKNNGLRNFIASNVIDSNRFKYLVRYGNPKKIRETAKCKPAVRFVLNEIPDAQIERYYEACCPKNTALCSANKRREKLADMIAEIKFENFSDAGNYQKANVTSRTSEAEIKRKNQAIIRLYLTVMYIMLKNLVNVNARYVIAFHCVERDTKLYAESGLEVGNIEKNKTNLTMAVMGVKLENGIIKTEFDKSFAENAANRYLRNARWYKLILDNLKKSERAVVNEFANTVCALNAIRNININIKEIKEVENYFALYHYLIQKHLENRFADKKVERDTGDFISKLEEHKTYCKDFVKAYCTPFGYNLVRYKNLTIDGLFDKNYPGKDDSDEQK
The data set can be described thus: crRNA (strand 1, pre-loaded); Mg2+; 40 mM Tris-HCl pH 7.5, 150 mM NaCl, 6 mM MgCl2, 1 mM DTT, 0.1% Tween-20, 0.2 mg/ml BSA; 25 C; 10 min per concentration, then washed. The conditions noted are these: tags: His6-TwinStrep-SUMO cleaved; N-terminal SNAP kept (SNAP-Surface 488); label: 3' end held by stalled T7 RNA polymerase.
By Kd is commonly meant the free concentration of one partner at which half of the binding sites on the other are occupied at equilibrium, for simple one-to-one binding. In the case of B1, the Kd was determined as 43 ± 4 nM.
The value for B2 was 27.2 ± 1.4 nM.
B3 came in with a Kd of 13.5 ± 0.5 nM.
The value for B4 was 39 ± 4 nM.
In turn, B5 returned a Kd of 8.7 ± 0.75 nM.
The value for B6 was 35.5 ± 4 nM; that for B7 was 43.5 ± 7 nM.
The value for B8 was 44.1 ± 3.35 nM.
The molecule B9 had a Kd of 90.5 ± 20.5 nM.
The value for B10 was 83 ± 21.5 nM; that for B11 was 105 ± 43.5 nM; that for B12 was approximately 105 nM.
For B13, the Kd was 100 ± 45 nM.
The value for B14 was 45.5 ± 4.5 nM; that for B15 was 47 ± 10.5 nM; that for B16 was 57 ± 9 nM.
The value for B17 was 72 ± 21 nM; that for B18 was 15.7 ± 1.25 nM.
The value for B19 was 1.98 ± 0.2 nM.
In turn, B20 yielded a dissociation constant Kd of 74.5 ± 24 nM.
The value for B21 was 13.3 ± 1.4 nM; that for B22 was 22.9 ± 2.65 nM.
The value for B23 was 67.5 ± 17.5 nM; that for B24 was 77 ± 23 nM; that for B25 was 71 ± 14 nM.
The value for B26 was 26.6 ± 4.1 nM.
In turn, B27 registered a Kd of 8.95 ± 0.95 nM.
The value for B28 was 32.7 ± 4.05 nM; that for B29 was 27.6 ± 3.05 nM; that for B30 was approximately 71 nM.
The value for B31 was 120 ± 50 nM.
